For orientation: Kd means the concentration at which binding is half-saturated. Lower therefore signals tighter binding.

Assay [1] has as its target human HER2 on cells (human) (UniProt P04626).
For assay [2], the target named is HER2 extracellular domain (ECD) (UniProt P04626). The assay can be described thus: HER2 KD relative to 4D5 (WT); assay not stated.
Assay [3] shares this target. In words: HER2 binding affinity of the HER2 arm; assay and form of HER2 not stated on the sheet or in the legend.

Turning to hu4D5.v5 (bispecific antibody), in assay [1], the EC50 of SKBR3 target cell killing came to 0.075 µg/mL and the SKBR3 EC50 fold (relative to 4D5) came out at 9900 fold. Also, in assay [2], the KD fold is 31.2 fold. The substance further came in with a Kd in assay [3] of 15.6 nM.

Source of the values: patent US20200299408A1.
